In publication PMC9795039, “Kindlin2 enables EphB/ephrinB bi-directional signaling to support vascular development” (Life Science Alliance, 2022):

B1: his-tagged human full-length kindlin2 [human] / his/Avi-tagged cytoplasmic tail of ephrinB2 WT [modified: biotinylated; biotinylated] [not stated] (parent complex)
chain 1: MALDGIRMPDGCYADGTWELSVHVTDLNRDVTLRVTGEVHIGGVMLKLVEKLDVKKDWSDHALWWEKKRTWLLKTHWTLDKYGIQADAKLQFTPQHKLLRLQLPNMKYVKVKVNFSDRVFKAVSDICKTFNIRHPEELSLLKKPRDPTKKKKKKLDDQSEDEALELEGPLITPGSGSIYSSPGLYSKTMTPTYDAHDGSPLSPTSAWFGDSALSEGNPGILAVSQPITSPEILAKMFKPQALLDKAKINQGWLDSSRSLMEQDVKENEALLLRFKYYSFFDLNPKYDAIRINQLYEQAKWAILLEEIECTEEEMMMFAALQYHINKLSIMTSENHLNNSDKEVDEVDAALSDLEITLEGGKTSTILGDITSIPELADYIKVFKPKKLTLKGYKQYWCTFKDTSISCYKSKEESSGTPAHQMNLRGCEVTPDVNISGQKFNIKLLIPVAEGMNEIWLRCDNEKQYAHWMAACRLASKGKTMADSSYNLEVQNILSFLKMQHLNPDPQLIPEQITTDITPECLVSPRYLKKYKNKQITARILEAHQNVAQMSLIEAKMRFIQAWQSLPEFGITHFIARFQGGKKEELIGIAYNRLIRMDASTGDAIKTWRFSNMKQWNVNWEIKMVTVEFADEVRLSFICTEVDCKVVHEFIGGYIFLSTRAKDQNESLDEEMFYKLTSGWV
chain 2: KYRRRHRKHSPQHTTTLSLSTLATPKRSGNNNGSEPSDIIIPLRTADSVFCPHYEKVSGDYGHPVYIVQEMPPQSPANIYYKV

Variants of: B1
Test: in vitro binding assay (pulldown on NeutrAvidin beads, Western blot densitometry); purified kindlin2; n = 3; read off a plot

percent of parent [% WT] | Variant
~36 | chain 2 KYRRRHRKHSPQHTTTLSLSTLATPKRSGNNNGSEPSDIIIPLRTADSVFCPHYEKVSGDYGHPVYIVQEMPPQSPAAIYAKV
~14 | chain 2 KYRRRHRKHSPQHTTTLSLSTLATPKRSGNNNGSEPSDIIIPLRTADSVFCPHYEKVSGDYGHPVYIVQEMPPQSPAAAAAKV

Continued, variant first:

Variant | percent of parent [% WT]
chain 2 KYRRRHRKHSPQHTTTLSLSTLATPKRSGNNNGSEPSDIIIPLRTADSVFCPHYEKVSGDYGHPVYIVQEMPPQSPANIYAKV | ~61
chain 2 KYRRRHRKHSPQHTTTLSLSTLATPKRSGNNNGSEPSDIIIPLRTADSVFCPHYEKVSGDYGHPVYIVQEMPPQAPANIYYKV | ~105
chain 2 KYRRRHRKHSPQHTTTLSLSTLATPKRSGNNNGSEPSDIIIPLRTADSVFCPHYEKVSGDYGHPVYIVQEMPPQSPAAIYYKV | ~107
